Data set [1] concerns the target AM1 (CRLR+RAMP2) receptor, lungs of dogs. The data set is described as follows: Displacement of labelled human adrenomedullin in the lungs of dogs. In kind it is binding, dog. As to conditions: displacement of labelled hAM.
The conditions of data set [2]: dog, in vivo, iv. How it is done:
All experimental procedures were performed in accordance with regulations and ethical guidelines from Canadian Council for the Care of Laboratory Animals, and received approval by the animal ethics and research committee of the Montreal Heart Institute. Mongrel dogs weighing between 20-30 kg and presenting negative Dirofilaria imitis blood test results were anesthetized by an initial intravenous dose of pentobarbital sodium (50 mg/kg). Animals were intubated and mechanically ventilated using room air. Cutaneous electrocardiographic leads were installed, and 18F cathlon with three-way was installed on both saphenous vein for 0.9% sodium chloride perfusion, radiolabelled injection and blood collection. A right arterial femoral catheter was also inserted using the Seldinger technique for continuous blood pressure monitoring.
Purified and buffered ^99mTc-DTPA-hAM1-52 samples were injected in right saphenous vein (n=6). A series of 2 mL blood samples were collected 1 min after the initial AM injection for a 10-min period, then repeated every 5 min for the following 50-min period. Blood samples were taken via left saphenous vein. […] The blood samples were then placed in an automatic gamma counter (model 1272 Clinigamma, LKB Wallac, Finland) to determine ^99mTc activity.
Plasma kinetics of ^99mTc-DTPA-hAM1-52 was fitted using a two-phase exponential decay equation with GraphPad Prism version 4.0 software. Time effects on each organ biodistribution were analyzed by two-way repeated measures ANOVA followed, when a significant interaction was found, by Bonferroni/Dunn t-test. Multiple organs biodistribution comparison at 30 minutes was performed by one-way ANOVA followed, when a significant interaction was found, by Bonferroni/Dunn t-test. A P values of <0.05 was considered significant. All results are reported as mean±S.D.

For data set [3] the following is noted: dog, in vivo.
Procedure: Multi-organic biodistribution of ^99mTc-DTPA-hAM1-52 was evaluated with an Anger camera (420/550 Mobile Radioisotope Gamma Camera; Technicare, Solon, Ohio, USA) equipped with on board computer, and a low-energy parallel-hole collimator (model 14S22014). Following intravenous injection of ^99mTc-DTPA-hAM1-52, dynamic acquisition of the lungs, heart, liver and kidneys was recorded for a 30-min period (one frame/sec during the first minute, then one frame/min for the remaining time). Static acquisitions was also recorded for whole individual organs, including lungs, kidneys, liver, heart, bladder, gallbladder and muzzle, at 30, 60, 120, 240 minutes after initial injection. These recordings were performed both in ventral and dorsal positions.
Dynamic and static acquisitions were evaluated by using Matlab version 7.01 image analysis tools software. The ^99mTc total count, ^99mTc mean count, and region of interest (ROI) size were calculated for each organ. Data correction was applied for 1) radioactive decay, 2) surgical table attenuation (dorsal images only), 3) geometric mean, and 4) organ's attenuation based on transmission factor.

Some results are limits rather than exact numbers.

The term IC50 denotes the concentration that inhibits the measured activity by half. Low values mean greater potency in that assay, high ones weaker potency in that assay.

As for “hAM(1-25): human adrenomedullin fragment, amino acids 1-25 (YRQSMNNFQGLRSFGCRFGTCTVQK)”, the concentration for half-maximal inhibition (IC50) in data set [1] was at least 10000 nM.
On the same count and under the same terms, in the case of “hAM2(16-47): fragment 16-47 of hAM2 (QVQNLSHRLWQLMGPAGRQDSAPVDPSSPHSY) [reference compound]” it was 980 nM; in that of “hAM2: AM2, a peptide within the same family as AM [reference compound]”, 480 nM.
Turning to `CC[C@H](C)[C@H](NC(=O)[C@H](CCC(N)=O)NC(=O)[C@H](Cc1c[nH]cn1)NC(=O)[C@H](C)NC(=O)[C@H](CC(C)C)NC(=O)[C@H](CCCCN)NC(=O)[C@H](CCC(N)=O)NC(=O)[C@@H](NC(=O)[C@@H](NC(=O)[C@@H]1CSSC[C@H](NC(=O)CNC(=O)[C@H](Cc2ccccc2)NC(=O)[C@H](CO)NC(=O)[C@H](CCCNC(=N)N)NC(=O)[C@H](CC(C)C)NC(=O)CNC(=O)[C@H](CCC(N)=O)NC(=O)[C@H](Cc2ccccc2)NC(=O)[C@H](CC(N)=O)NC(=O)[C@H](CC(N)=O)NC(=O)[C@H](CCSC)NC(=O)[C@H](CO)NC(=O)[C@H](CCC(N)=O)NC(=O)[C@H](CCCNC(=N)N)NC(=O)[C@@H](N)Cc2ccc(O)cc2)C(=O)N[C@@H](CCCNC(=N)N)C(=O)N[C@@H](Cc2ccccc2)C(=O)NCC(=O)N[C@@H]([C@@H](C)O)C(=O)N1)[C@@H](C)O)C(C)C)C(=O)N[C@@H](Cc1ccc(O)cc1)C(=O)N[C@@H](CCC(N)=O)C(=O)N[C@@H](Cc1ccccc1)C(=O)N[C@H](C(=O)N[C@@H](CC(=O)O)C(=O)N[C@@H](CCCCN)C(=O)N[C@@H](CC(=O)O)C(=O)N[C@@H](CCCCN)C(=O)N[C@@H](CC(=O)O)C(=O)N[C@@H](CC(N)=O)C(=O)N[C@H](C(=O)N[C@@H](C)C(=O)N1CCC[C@H]1C(=O)N[C@@H](CCCNC(=N)N)C(=O)N[C@@H](CO)C(=O)N[C@@H](CCCCN)C(=O)N[C@H](C(=O)N[C@@H](CO)C(=O)N1CCC[C@H]1C(=O)N[C@@H](CCC(N)=O)C(=O)NCC(=O)N[C@@H](Cc1ccc(O)cc1)C(N)=O)[C@@H](C)CC)C(C)C)[C@@H](C)O` [hAM (cyclic), human adrenomedullin, reference compound], the IC50 in data set [1] amounted to […].
As for `CC[C@H](C)[C@H](NC(=O)[C@H](CCC(N)=O)NC(=O)[C@H](Cc1c[nH]cn1)NC(=O)[C@H](C)NC(=O)[C@H](CC(C)C)NC(=O)[C@H](CCCCN)NC(=O)[C@H](CCC(N)=O)NC(=O)[C@@H](NC(=O)[C@@H](NC(=O)[C@@H]1CSSC[C@H](NC(=O)CNC(=O)[C@H](Cc2ccccc2)NC(=O)[C@H](CO)NC(=O)[C@H](CCCNC(=N)N)NC(=O)[C@H](CC(C)C)NC(=O)CNC(=O)[C@H](CCC(N)=O)NC(=O)[C@H](Cc2ccccc2)NC(=O)[C@H](CC(N)=O)NC(=O)[C@H](CC(N)=O)NC(=O)[C@H](CCSC)NC(=O)[C@H](CO)NC(=O)[C@H](CCC(N)=O)NC(=O)[C@H](CCCNC(=N)N)NC(=O)[C@H](Cc2ccc(O)cc2)NC(=O)CN(CCN(CCN(CC(=O)O)CC(=O)O)CC(=O)O)CC(=O)O)C(=O)N[C@@H](CCCNC(=N)N)C(=O)N[C@@H](Cc2ccccc2)C(=O)NCC(=O)N[C@@H]([C@@H](C)O)C(=O)N1)[C@@H](C)O)C(C)C)C(=O)N[C@@H](Cc1ccc(O)cc1)C(=O)N[C@@H](CCC(N)=O)C(=O)N[C@@H](Cc1ccccc1)C(=O)N[C@H](C(=O)N[C@@H](CC(=O)O)C(=O)N[C@@H](CCCCN)C(=O)N[C@@H](CC(=O)O)C(=O)N[C@@H](CCCCN)C(=O)N[C@@H](CC(=O)O)C(=O)N[C@@H](CC(N)=O)C(=O)N[C@H](C(=O)N[C@@H](C)C(=O)N1CCC[C@H]1C(=O)N[C@@H](CCCNC(=N)N)C(=O)N[C@@H](CO)C(=O)N[C@@H](CCCCN)C(=O)N[C@H](C(=O)N[C@@H](CO)C(=O)N1CCC[C@H]1C(=O)N[C@@H](CCC(N)=O)C(=O)NCC(=O)N[C@@H](Cc1ccc(O)cc1)C(N)=O)[C@@H](C)CC)C(C)C)[C@@H](C)O` [^99mTc-DTPA-hAM1-52, metal not drawn], in data set [2], the distribution half-life was 1.75 min; the elimination half-life amounted to 42.14 min; the “ratio of rate constant for exchange between central and peripheral compartments (k1-2/k2-1)” value is on record as 24.09. Moreover, in data set [3], the “bladder retention, % of the injected dose” value is on record as 5.67±1.75%; the dynamic multi-organic biodistribution result is recorded as “significant pulmonary first pass retention”; the “gallbladder retention, % of the injected dose” value is listed as 0.96±0.38%; the “heart retention, % of the injected dose” value was 7.17±2.04%. Besides, in data set [3], the “kidneys retention, % of the injected dose” value was 19.17±3.06%; the “liver retention, % of the injected dose” value turned out to be 11.67±1.37%; the “lung retention, % of the injected dose” value stood at 15.83±2.32%; the “lungs retention, % of the injected dose” value is on record as 27.00±2.76%. The “muzzle retention, % of the injected dose” value in data set [3] worked out at 1.17±0.41%.
In the case of “hAM(26-52): human adrenomedullin fragment, amino acids 26-52 (LAHQIYQFTDKDKDNVAPRSKISPQGY)”, in data set [1], the IC50 is at least 1000 nM.
The same measure, in the same setting: in the case of N-Ac hAM: N-terminal acetylated AM it was 0.041 nM; in that of “CGRP(8-37): CGRP fragment 8-37 [reference compound]”, at least 10000 nM.
Still for that read-out and setting: in the case of “hAM(13-52): human adrenomedullin fragment, amino acids 13-52” it was 34 nM; in that of “PAMP: synthetic peptide of Table 1, not further defined (ARLDVASEFRKKWNKWALSR) [reference compound]”, at least 10000 nM.
Same read-out and setting: in the case of “hAM(40-52): human adrenomedullin fragment, amino acids 40-52 (NVAPRSKISPQGY)” it was at least 10000 nM.
Consider `CC[C@H](C)[C@H](NC(=O)[C@H](CCC(N)=O)NC(=O)[C@H](Cc1c[nH]cn1)NC(=O)[C@H](C)NC(=O)[C@H](CC(C)C)NC(=O)[C@H](CCCCN)NC(=O)[C@H](CCC(N)=O)NC(=O)[C@@H](NC(=O)[C@@H](NC(=O)[C@H](CS)NC(=O)[C@@H](NC(=O)CNC(=O)[C@H](Cc1ccccc1)NC(=O)[C@H](CCCNC(=N)N)NC(=O)[C@H](CS)NC(=O)CNC(=O)[C@H](Cc1ccccc1)NC(=O)[C@H](CO)NC(=O)[C@H](CCCNC(=N)N)NC(=O)[C@H](CC(C)C)NC(=O)CNC(=O)[C@H](CCC(N)=O)NC(=O)[C@H](Cc1ccccc1)NC(=O)[C@H](CC(N)=O)NC(=O)[C@H](CC(N)=O)NC(=O)[C@H](CCSC)NC(=O)[C@H](CO)NC(=O)[C@H](CCC(N)=O)NC(=O)[C@H](CCCNC(=N)N)NC(=O)[C@@H](N)Cc1ccc(O)cc1)[C@@H](C)O)[C@@H](C)O)C(C)C)C(=O)N[C@@H](Cc1ccc(O)cc1)C(=O)N[C@@H](CCC(N)=O)C(=O)N[C@@H](Cc1ccccc1)C(=O)N[C@H](C(=O)N[C@@H](CC(=O)O)C(=O)N[C@@H](CCCCN)C(=O)N[C@@H](CC(=O)O)C(=O)N[C@@H](CCCCN)C(=O)N[C@@H](CC(=O)O)C(=O)N[C@@H](CC(N)=O)C(=O)N[C@H](C(=O)N[C@@H](C)C(=O)N1CCC[C@H]1C(=O)N[C@@H](CCCNC(=N)N)C(=O)N[C@@H](CO)C(=O)N[C@@H](CCCCN)C(=O)N[C@H](C(=O)N[C@@H](CO)C(=O)N1CCC[C@H]1C(=O)N[C@@H](CCC(N)=O)C(=O)NCC(=O)N[C@@H](Cc1ccc(O)cc1)C(N)=O)[C@@H](C)CC)C(C)C)[C@@H](C)O` [hAM linear, Linear adrenomedullin], for which the concentration for half-maximal inhibition (IC50) in data set [1] was 7.1 nM.

Values taken from patent US9062123B2, “Labelled adrenomedullin derivatives and their use for imaging and therapy” (PLUMOSCIENCE INC., priority 2004, dated 2015).
